Reference: US20210171640A1 (Janssen / Centocor, published 2021)

T1: human VISTA extracellular domain (human, UniProt Q9H7M9 33-194)
T1 construct: also called SB0361 (human); human VISTA ECD
T1 sequence: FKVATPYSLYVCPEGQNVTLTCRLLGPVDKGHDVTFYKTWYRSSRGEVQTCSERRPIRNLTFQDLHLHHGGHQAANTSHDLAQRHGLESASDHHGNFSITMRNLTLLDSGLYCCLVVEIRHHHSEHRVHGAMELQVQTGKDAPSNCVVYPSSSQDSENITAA

T2: cynomolgus VISTA extracellular domain (cynomolgus, UniProt A0A7N9IB00 33-194)
T2 construct: extracellular domain; also called SB0361 (cyno); cyno VISTA ECD
T2 sequence: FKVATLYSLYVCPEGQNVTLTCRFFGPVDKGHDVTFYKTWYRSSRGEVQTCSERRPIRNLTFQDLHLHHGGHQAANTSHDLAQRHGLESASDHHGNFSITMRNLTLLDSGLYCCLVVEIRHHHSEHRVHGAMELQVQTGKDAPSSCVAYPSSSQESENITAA

T3: human VISTA expressed on cells (human, UniProt Q9H7M9 33-295)
T3 sequence: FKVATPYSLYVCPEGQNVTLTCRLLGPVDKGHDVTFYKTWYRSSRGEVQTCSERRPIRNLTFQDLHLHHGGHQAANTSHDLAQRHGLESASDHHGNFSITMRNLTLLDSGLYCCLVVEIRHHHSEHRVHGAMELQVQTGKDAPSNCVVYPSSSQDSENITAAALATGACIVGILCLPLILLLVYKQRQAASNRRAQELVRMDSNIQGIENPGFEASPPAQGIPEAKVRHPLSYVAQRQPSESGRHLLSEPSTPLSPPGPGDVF


How the values were obtained:
[1] = target: T1, human VISTA extracellular domain; test: ProteOn SPR
Description: (§1) Antibodies were captured on ProteOn chips using anti-IgG Fc coated surfaces. […] The antigens were allowed to bind/associate to the antibody-coated chips for 4 minutes after which time dissociation was monitored for 30 minutes. Chips were regenerated with two treatments of 100 mM phosphoric acid for 18 seconds. All experiments were run at 25° C. and data was fit to 1:1 Langmuir binding model.

[2] = target: T2, cynomolgus VISTA extracellular domain; test: ProteOn SPR
Description: as §1

[3] = target: T3, human VISTA expressed on cells; test: cell-based or functional assay
[4] = target: T3, human VISTA expressed on cells; test: cell-based or functional assay; remark: listed apart in the source
[5] = target: T3, human VISTA expressed on cells; test: cell-based or functional assay; remark: listed apart in the source

Row | Kd [1] [pM] | koff [1] [s⁻¹] | kon [1] [M⁻¹ s⁻¹] | Kd [2] [pM] | koff [2] [s⁻¹] | kon [2] [M⁻¹ s⁻¹] | IC50, IFN-γ in the SEB assay [3] | EC50 IFNγ production, MLR [4] [µg/mL] | IC50, IFN-γ in the MLR [5] | Binder
1 | 636 | 0.000336 | 528000 | 302 | 0.00018 | 598000 | – | – | – | VSTB103 (antibody, V domains shown) VH: EVQLVQSGAEVKKPGESLKISCKGSGYSFTSYWIGWVRQMPGKGLEWMGIIYPGDSDTRYSPSFQGQVTISADKSISTAYLQWSSLKASDTAMYYCARDDALYGGYYLDYWGQGTLVTVSS VL: not shown
2 | – | – | – | – | – | – | 1.69 log10 of antibody concentration | 1.14 | 0.06 log10 of antibody concentration | VSTB50 (antibody, human IgG1, kappa, V domains shown) VH: QVQLVQSGSELKKPGASVKVSCKASGYTFTNYGLNWVRQAPGQGLEWMGWINPYTGEPTYADDFKGRFVFSLDTSVSTAYLQICSLKAEDTAVYYCAREGYGNYIFPYWGQGTLVTVSS VL: DIVMTQTPLSLSVTPGQPASISCRASESVDTYANSLMHWYLQKPGQPPQLLIYRASNLESGVPDRFSGSGSGTDFTLKISRVEAEDVGVYYCQQTNEDPRTFGQGTKLEIKR
3 | – | – | – | – | – | – | – | 2.48 | 0.4 log10 of antibody concentration | VSTB60 (antibody, human IgG1, kappa, V domains shown) VH: QVQLVQSGSELKKPGASVKVSCKASGYTFTNYGMTWVRQAPGQGLEWMGWINTYTGESTYADDFKGRFVFSLDTSVSTAYLQICSLKAEDTAVYYCARDYYGIYVSAYWGQGTLVTVSS VL: DIVMTQTPLSLSVTPGQPASISCRASESVDNYANSFMHWYLQKPGQSPQLLIYRASNLESGVPDRFSGSGSGTDFTLKISRVEAEDVGVYYCQQSHEDPYTFGQGTKLEIKR
4 | – | – | – | – | – | – | -0.35 log10 of antibody concentration | 0.69 | -0.16 log10 of antibody concentration | VSTB116 (antibody, human IgG1, kappa, V domains shown) VH: QVQLVQSGAEVKKPGSSVKVSCKASGGTFSSYAISWVRQAPGQGLEWMGGIIPIFGTANYAQKFQGRVTITADESTSTAYMELSSLRSEDTAVYYCARSSYGWSYEFDYWGQGTLVTVSS VL: DIQMTQSPSSLSASVGDRVTITCRASQSINTNLNWYQQKPGKAPKLLIYAASSLQSGVPSRFSGSGSGTDFTLTISSLQPEDFATYYCQQARDTPITFGQGTKVEIKR
5 | – | – | – | – | – | – | 0.05 log10 of antibody concentration | 1.67 | 0.22 log10 of antibody concentration | VSTB95 (antibody, human IgG1, kappa, V domains shown) VH: EVQLVESGGGLVQPGGSLRLSCAASGFTFRNYGMSWVRQAPGKGLEWVASIISGGSYTYYPDSVKGRFTISRDNAKNSLYLQMNSLRAEDTAVYYCARIYDHDGDYYAMDYWGQGTTVTVSS VL: DIVMTQSPLSLPVTPGEPASISCRSSQSIVHSNGNTYLEWYLQKPGQSPQLLIYKVSNRFSGVPDRFSGSGSGTDFTLKISRVEAEDVGVYYCFQGSHVPWTFGQGTKLEIKR
6 | – | – | – | – | – | – | -1.05 log10 of antibody concentration | 1.88 | 0.27 log10 of antibody concentration | VSTB53 (antibody, human IgG1, kappa, V domains shown) VH: QVQLVQSGAEVKKPGASVKVSCKASGYTFTHYTIHWVRQAPGQGLEWMGYIIPSSGYSEYNQKFKDRVTMTRDTSTSTVYMELSSLRSEDTAVYYCARGAYDDYYDYYAMDYWGQGTLVTVSS VL: DIVMTQSPLSLPVTPGEPASISCRSSQTIVHSNGNTYLEWYLQKPGQSPQLLIYKVSNRFSGVPDRFSGSGSGTDFTLKISRVEAEDVGVYYCFQASHVPWTFGQGTKLEIKR
7 | 562 | 0.000223 | 397000 | 347 | 0.000144 | 415000 | – | – | – | VSTB74 (antibody, V domains shown) VH: QMQLVQSGPEVKKPGTSVKVSCKASGYIFTDYNIDWVRQARGQRLEWIGDINPKYDSTRYNQKFKGRVTITRDMSTSTAYMELSSLRSEDTAVYYCAADGSSAMDYWGQGTTVTVSS VL: DIVMTQSPDSLAVSLGERATINCKSSQSLLNSGHQKNYLAWYQQKPGQPPKLLIYGASTRESGVPDRFSGSGSGTDFTLTISSLQAEDVAVYYCQNDHRYPLTFGQGTKLEIKR
